The source of these data is paper doi:10.1101/2022.08.10.503460 (bioRxiv, 2022).

The experiment concerns the target Mouse Pcdh15 EC1-2 (mouse, UniProt Q99PJ1 27-259). Kind of experiment: AFM force-clamp spectroscopy.

B1: Mouse Cdh23 EC1-2 (domain or fragment)
chain: QVNRLPFFTNHFFDTYLLISEDTPVGSSVTQLLARDMDNDPLVFGVSGEEASRFFAVEPDTGVVWLRQPLDRETKSEFTVEFSVSDHQGVITRKVNIQVGDVNDNAPTFHNQPYSVRIPENTPVGTPIFIVNATDPDLGAGGSVLYSFQPPSPFFAIDSARGIVTVIQELDYEVTQAYQLTVNATDQDKTRPLSTLANLAIIITD
B1 gave a koff of 0.2 s⁻¹.

In general, koff refers to a measure of how fast the partners let go of each other. Low values mean a long-lived complex, high ones a short-lived complex.
